Results on two substances are retold here after PMC3005839.

Test [1] has as its target Nucleosome core particle NCP-601 (Xenopus laevis). Kind of test: native gel or EMSA; near physiological ionic strength: 1X TBE (89 mM Tris-HCl, 89 mM boric acid, 1.0 mM EDTA, pH 8.3); preassembled NCP or array incubated with HMGN about 30 min at room temperature, electrophoresis at 4°C; 0.5 μM nucleosome core sites. (In EMSA bound probe runs differently from free probe, usually more slowly.)

In test [2] the target is Nucleosome core particle NCP147 (Xenopus laevis). The test is described as above.
The target in test [3] is Centered nucleosome core particle NCP146b (Xenopus laevis). Kind of test: native gel or EMSA; low ionic strength: 0.25X TBE (0.25X TAE for 12-array); preassembled NCP or array incubated with HMGN or NBD peptide about 30 min at room temperature, electrophoresis at 4°C; 0.5 μM nucleosome core sites; NCP on 6% polyacrylamide, array on 1% agarose/1.3% polyacrylamide.
The target in test [4] is Nucleosome core particle NCP-601 (Xenopus laevis). The test is described as above.
The target in test [5] is Nucleosome core particle NCP147 (Xenopus laevis). The test is described as above.

“And” between values parts separate entries of the source, which are not always exact repeats. Equal entries are not always repeated.

For the substance Xenopus laevis HMGN1 (natural protein), the stoichiometry N (HMGN : nucleosome core particle) in test [1] and in test [2] was 2 in each case. Also, the stoichiometry N (HMGN : nucleosome) was 1 and 2 in test [3]; 1 and 2 in test [4]; 1 and 2 in test [5].

Consider Xenopus laevis HMGN2 (natural protein), for which the stoichiometry N (HMGN : nucleosome core particle) in test [1] and in test [2] was 2 in each case. In addition, the stoichiometry N (HMGN : nucleosome) was 1 and 2 in test [3]; 2 and 1 in test [4]; 1 and 2 in test [5].
